Data taken from patent publication US20230056821A1.

Key:
PlGF = biological target: T1, PlGF (UniProt P49763); assay: SPR, Biacore T200
T1 sequence (looked up): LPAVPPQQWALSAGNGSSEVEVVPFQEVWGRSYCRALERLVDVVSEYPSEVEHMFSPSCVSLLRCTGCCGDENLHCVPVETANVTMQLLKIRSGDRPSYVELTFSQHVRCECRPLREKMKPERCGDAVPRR

VEGF-A121 = VEGF-A121 (UniProt P15692); assay: SPR, Biacore T200
VEGF-A165 (human) [1] = biological target: VEGF-A165 (human) (UniProt P15692); assay: SPR, Biacore T200
VEGF-A165 (human) [2] = biological target: VEGF-A165 (human) (UniProt P15692); assay: cell-based or functional assay
C4b (human) [3] = biological target: C4b (human) (UniProt P0C0L4); assay: SPR, Biacore T200
C3b [4] = biological target: C3b (UniProt P01024); assay: SPR, Biacore T200
C4b (human) [5] = biological target: C4b (human) (UniProt P0C0L4); assay: cell-based or functional assay
C3b [6] = biological target: C3b (UniProt P01024); assay: cell-based or functional assay

Aflibercept injection (Fc fusion), sequence (chain): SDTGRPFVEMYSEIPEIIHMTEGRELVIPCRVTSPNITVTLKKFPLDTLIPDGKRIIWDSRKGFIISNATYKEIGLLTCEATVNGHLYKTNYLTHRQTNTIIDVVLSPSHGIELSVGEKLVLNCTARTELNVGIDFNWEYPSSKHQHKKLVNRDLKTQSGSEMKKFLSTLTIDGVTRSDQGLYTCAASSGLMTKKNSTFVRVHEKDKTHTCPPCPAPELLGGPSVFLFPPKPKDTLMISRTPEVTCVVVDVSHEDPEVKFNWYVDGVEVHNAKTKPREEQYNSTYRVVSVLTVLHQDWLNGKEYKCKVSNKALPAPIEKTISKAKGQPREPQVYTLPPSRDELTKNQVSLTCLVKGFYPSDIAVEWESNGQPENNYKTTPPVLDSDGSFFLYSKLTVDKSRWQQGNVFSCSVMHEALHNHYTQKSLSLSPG
VEGF-A165 (human), sequence (P15692 other isoform, or with tags, fused parts or gaps limits assumed): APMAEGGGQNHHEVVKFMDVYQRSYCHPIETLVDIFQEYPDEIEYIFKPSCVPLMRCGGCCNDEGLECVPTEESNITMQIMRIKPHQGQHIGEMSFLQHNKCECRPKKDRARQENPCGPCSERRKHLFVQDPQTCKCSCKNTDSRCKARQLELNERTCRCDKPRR
VEGF-A121, sequence (P15692 other isoform, or with tags, fused parts or gaps limits assumed): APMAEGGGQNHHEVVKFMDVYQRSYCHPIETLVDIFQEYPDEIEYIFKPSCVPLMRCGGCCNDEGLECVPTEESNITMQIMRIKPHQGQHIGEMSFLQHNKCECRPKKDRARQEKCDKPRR
C4b (human), sequence (P0C0L4 20-1744): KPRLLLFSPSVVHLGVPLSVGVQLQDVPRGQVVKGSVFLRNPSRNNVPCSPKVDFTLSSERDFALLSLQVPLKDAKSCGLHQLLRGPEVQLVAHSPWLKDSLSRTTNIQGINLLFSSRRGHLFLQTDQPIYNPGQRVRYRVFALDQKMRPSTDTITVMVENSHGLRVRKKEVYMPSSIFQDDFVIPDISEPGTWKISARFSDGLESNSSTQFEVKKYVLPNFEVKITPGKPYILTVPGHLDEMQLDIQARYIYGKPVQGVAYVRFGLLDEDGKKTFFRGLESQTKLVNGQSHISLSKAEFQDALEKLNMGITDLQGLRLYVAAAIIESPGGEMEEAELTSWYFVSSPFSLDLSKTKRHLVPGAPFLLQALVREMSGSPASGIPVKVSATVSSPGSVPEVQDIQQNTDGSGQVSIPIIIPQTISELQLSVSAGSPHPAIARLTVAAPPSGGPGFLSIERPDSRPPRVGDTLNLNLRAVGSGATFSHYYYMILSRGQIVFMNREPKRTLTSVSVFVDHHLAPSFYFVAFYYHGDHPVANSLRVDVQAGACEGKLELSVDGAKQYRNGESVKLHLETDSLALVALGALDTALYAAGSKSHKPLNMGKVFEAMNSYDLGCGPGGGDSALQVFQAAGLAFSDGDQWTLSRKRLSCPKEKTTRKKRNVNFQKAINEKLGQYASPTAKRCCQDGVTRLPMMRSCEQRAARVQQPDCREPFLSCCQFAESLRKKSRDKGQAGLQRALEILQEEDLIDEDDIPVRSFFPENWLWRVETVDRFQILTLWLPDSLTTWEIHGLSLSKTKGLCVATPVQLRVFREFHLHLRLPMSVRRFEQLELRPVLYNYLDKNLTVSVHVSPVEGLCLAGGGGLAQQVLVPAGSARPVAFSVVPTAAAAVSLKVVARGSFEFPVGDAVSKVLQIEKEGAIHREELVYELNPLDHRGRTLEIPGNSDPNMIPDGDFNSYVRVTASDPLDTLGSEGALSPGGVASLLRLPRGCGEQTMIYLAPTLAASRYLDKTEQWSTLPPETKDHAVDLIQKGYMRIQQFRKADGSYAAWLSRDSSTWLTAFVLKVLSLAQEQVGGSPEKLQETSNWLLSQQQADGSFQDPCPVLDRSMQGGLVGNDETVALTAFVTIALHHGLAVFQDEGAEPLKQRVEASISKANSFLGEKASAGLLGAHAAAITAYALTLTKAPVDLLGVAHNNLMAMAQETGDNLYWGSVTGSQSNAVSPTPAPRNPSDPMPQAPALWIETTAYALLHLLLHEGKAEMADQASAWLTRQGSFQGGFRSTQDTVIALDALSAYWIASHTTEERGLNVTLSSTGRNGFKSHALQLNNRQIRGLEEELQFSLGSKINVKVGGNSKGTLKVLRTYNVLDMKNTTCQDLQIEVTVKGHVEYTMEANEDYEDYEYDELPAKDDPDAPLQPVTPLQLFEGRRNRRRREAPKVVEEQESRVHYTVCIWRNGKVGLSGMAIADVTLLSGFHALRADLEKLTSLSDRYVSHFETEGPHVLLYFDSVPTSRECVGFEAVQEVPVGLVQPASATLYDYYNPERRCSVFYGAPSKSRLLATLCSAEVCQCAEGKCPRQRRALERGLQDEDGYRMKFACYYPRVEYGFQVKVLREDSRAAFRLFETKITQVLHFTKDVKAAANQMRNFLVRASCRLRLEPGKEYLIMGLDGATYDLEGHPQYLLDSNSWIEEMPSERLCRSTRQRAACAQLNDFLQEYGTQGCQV

Substance Aflibercept injection (Fc fusion) has a Kd (PlGF) of 1.16 nM, a koff (PlGF) of 0.00384 s⁻¹ and a kon (PlGF) of 3.32e+06 M⁻¹ s⁻¹. For the same substance, the Kd (VEGF-A121) was 0.00778 nM, the koff (VEGF-A121) was 4.25e-05 s⁻¹ and the kon (VEGF-A121) was 5.46e+06 M⁻¹ s⁻¹. It also gave a Kd (VEGF-A165 (human) [1]) of 0.00387 nM, a koff (VEGF-A165 (human) [1]) of 7.93e-05 s⁻¹ and a kon (VEGF-A165 (human) [1]) of 2.05e+07 M⁻¹ s⁻¹. The EC50 (ng/mL), inhibition of VEGF-A-induced HUVEC proliferation (CCK-8) (VEGF-A165 (human) [2]) was 41 ng/mL and the EC50, inhibition of VEGF-A-induced HUVEC proliferation (CCK-8) (VEGF-A165 (human) [2]) was 0.357 nM.
In the case of “Human complement receptor type 1 (from UniProt P17927 42-1971)”, the Kd (C4b (human) [3]) is reported as 17.1 nM, the koff (C4b (human) [3]) is reported as 0.000805 s⁻¹ and the kon (C4b (human) [3]) is reported as 47000 M⁻¹ s⁻¹. The Kd (C3b [4]) was 0.35 nM, the koff (C3b [4]) was 0.0011 s⁻¹ and the kon (C3b [4]) was 3.16e+06 M⁻¹ s⁻¹.
With IBI302 (Fc fusion) the Kd (C4b (human) [3]) was 7.75 nM, the koff (C4b (human) [3]) was 0.00335 s⁻¹ and the kon (C4b (human) [3]) was 432000 M⁻¹ s⁻¹. It also gave a Kd (C3b [4]) of 9.96 nM, a koff (C3b [4]) of 0.00287 s⁻¹ and a kon (C3b [4]) of 288000 M⁻¹ s⁻¹. The EC50, inhibition of hemolysis of rabbit red blood cells induced by human serum complement (alternative pathway) (C4b (human) [5]) was 14.6 nM, the EC50, inhibition of hemolysis of sensitized sheep red blood cells induced by human serum complement (classical pathway) (C4b (human) [5]) was 2.51 nM and the EC50, inhibition of hemolysis of rabbit red blood cells induced by human serum complement (alternative pathway) (C3b [6]) was 14.6 nM. For the same substance, the EC50, inhibition of hemolysis of sensitized sheep red blood cells induced by human serum complement (classical pathway) (C3b [6]) was 2.51 nM.
